Experimental data: PMC4742754, “Biochemical and Structural Characterization of the Interaction between the Siderocalin NGAL/LCN2 (Neutrophil Gelatinase-associated Lipocalin/Lipocalin 2) and the N-terminal Domain of Its Endocytic Receptor SLC22A17*” (The Journal of Biological Chemistry, 2015)

B1: GFP-hLCN2-R-NTD (domain or fragment)
chain: MASDPIFTLAPPLHCHYGAFPPNASGWEQPPNASGVSVASAALAASAASRVATSTDPSCSGFAPPDFNHCLKDWDYNGLPVLTTNAIGQWDLVCDLGWQVILEQI
modifications: Limits: printed residues 1-105 are numbered on the 538-aa isoform (NM_020372); the 649-aa entry is taken to carry a 111-residue N-terminal extension (649-538), so offset +111 (Cys15/59/70/94 = …)

Columns and labels:
[1] = biological target: hLCN2-R-NTD quadruple mutant (hLCN2-R-NTD-QM) (human) (UniProt Q8WUG5); assay: ITC; apoNGAL (500 μM) in the syringe, hLCN2-R-NTD form (50 μM) in the cell; 25 °C, 20 mM Tris, pH 7.4, 50 mM NaCl; single binding site fit
[2] = biological target: hLCN2-R-NTD double mutant (hLCN2-R-NTD-DM), Cys-15–Cys-94 mutated out (human) (UniProt Q8WUG5); assay: as above
[3] = biological target: N-terminal domain of the human lipocalin 2 receptor (hLCN2-R-NTD), wild type (human) (UniProt Q8WUG5); assay: as above
[4] = biological target: hLCN2-R-NTD quadruple mutant (hLCN2-R-NTD-QM) (human) (UniProt Q8WUG5); assay: NMR 15N CPMG relaxation dispersion; 15N-labelled hLCN2-R-NTD-QM with 0.05, 0.1 and 0.15 eq of unlabelled NGAL; 25 °C; two-state exchange fit, kex and populations as global parameters for the C-terminal residues
[5] = biological target: T1, human neutrophil gelatinase-associated lipocalin, hNGAL(C87S) (human, UniProt P80188 21-198, C87S); assay: MST; GFP-hLCN2-R-NTD fixed at 500 nM, NGAL/[FeIII(Ent)]3- (NGAL loaded with ferric enterobactin) varied 0–300 μM; 20 mM Tris/HCl, pH 7.4, 25 °C; conditions: both partners purified
T1 construct: human NGAL (LCN2), coding region amplified from pGEX-4T-hNGAL(C87S); The holo form is the same protein loaded with ferric enterobactin (a small molecule); it is told apart by the assay; the wild type was made only for the spin label; also called apoNGAL; LCN2; not shown: His6, N-terminal, cleaved

[6] = biological target: T1, human neutrophil gelatinase-associated …; assay: MST; GFP-hLCN2-R-NTD fixed at 500 nM, apoNGAL varied 0–300 μM; 20 mM Tris/HCl, pH 7.4, 25 °C; conditions: both partners purified

T1 sequence (P80188 21-198 C107S): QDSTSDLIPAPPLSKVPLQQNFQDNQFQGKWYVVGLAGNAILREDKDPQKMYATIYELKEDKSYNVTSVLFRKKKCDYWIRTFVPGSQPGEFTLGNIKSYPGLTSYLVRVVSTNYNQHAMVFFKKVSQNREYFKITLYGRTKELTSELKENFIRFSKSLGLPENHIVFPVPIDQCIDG

Row | Molecule | Kd [1] [µM] | dH [1] [kcal/mol] | Kd [2] [µM] | dH [2] [kcal/mol] | Kd [3] [µM] | dH [3] [kcal/mol] | stoichiometry N [3] | kex (0.1 eq of NGAL) [4] [s⁻¹] | kex (0.15 eq of NGAL) [4] [s⁻¹] | population of bound state (0.1 eq of NGAL) [4] [%] | Kd [5] [µM] | Kd [6] [µM]
1 | human neutrophil gelatinase-associated lipocalin, hNGAL(C87S) (from UniProt P80188 21-198) (ligand) | 8 | -1.4 | 9 | -2.1 | 10 | -4.5 | 1 | 1300 | 1200 | 1 | – | –
2 | B1 | – | – | – | – | – | – | – | – | – | – | 20.7 | 6.6
